Experimental findings from paper PMC2865030 are described below.

The Kd is the constant that tells how readily two partners part at equilibrium. Read a low Kd as tighter binding. Usually stoichiometry N stands for a count of units in the complex or per binding partner.

Holding throughout (test): ITC
For orientation: ITC needs no label: the signal is the heat of the interaction.

The target in experiment [1] is C-terminal domain of yeast Hsp90 (yeast).
Experiment [2] addresses yeast Hsp90 (wild type, His-tagged) (yeast) (UniProt P02829).
Experiment [3] deals with yeast Hsp90 M705V (His-tagged) (yeast) (UniProt P02829).

B1: Tah1 (TPR-containing protein associated with Hsp90) (natural protein)
chain: MSQFEKQKEQGNSLFKQGLYREAVHCYDQLITAQPQNPVGYSNKAMALIKLGEYTQAIQMCQQGLRYTSTAEHVAIRSKLQYRLELAQGAVGSVQIPVVEVDELPEGYDRS
For the molecule B1, the Kd in experiment [1] amounted to 320 nM; in experiment [2], 780 nM; in experiment [3], 13000 nM. Further, the figures for the stoichiometry N in experiment [1], in experiment [2] and in experiment [3] were 0.93, 1.1 and 0.83, respectively.
